Experimental data as given in US20210277110A1 (Janssen / Centocor, published 2021).
Read-outs that look alike come from different tables or passages of the source.

Columns and labels:
[1] = molecular target: T1, Extracellular domain of human PD1 (huPD1-ECD) (human, UniProt Q15116 25-169, biotinylated in the ligand inhibition assay (sites not given)); assay: SPR ProteOn, captured mAb, huPD1-ECD analyte;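 as to Kd: SPR on ProteOn XPR36, antibodies captured by anti-IgG Fc on a GLC chip, data fitted with a Langmuir 1:1 model to give on-rate, off-rate and equilibrium KD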
T1 construct: Expressed with a hexahistidine tag or as Fc fusion; also called biotinylated PD-1
T1 sequence (Q15116 25-169 limits assumed): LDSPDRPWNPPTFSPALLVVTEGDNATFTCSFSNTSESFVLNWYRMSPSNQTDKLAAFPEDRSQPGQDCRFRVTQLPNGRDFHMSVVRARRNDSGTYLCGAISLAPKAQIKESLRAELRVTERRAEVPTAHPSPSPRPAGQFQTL

[2] = molecular target: T2, Full length human PD1 (huPD1) on cells (human, UniProt Q15116 25-288); assay: flow cytometry, PHA-stimulated Jurkat cells
T2 construct: on T cells of human donors in the MLR and CMV assays (functional); also called PD-1 on Jurkat cells
T2 sequence (Q15116 25-288 limits assumed): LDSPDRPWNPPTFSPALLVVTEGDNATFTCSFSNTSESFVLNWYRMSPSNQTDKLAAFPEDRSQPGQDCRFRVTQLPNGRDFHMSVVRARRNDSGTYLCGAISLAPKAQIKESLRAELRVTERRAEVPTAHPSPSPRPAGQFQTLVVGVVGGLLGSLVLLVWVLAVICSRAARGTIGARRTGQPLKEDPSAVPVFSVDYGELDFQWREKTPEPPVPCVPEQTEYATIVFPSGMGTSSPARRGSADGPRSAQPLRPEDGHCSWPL
Method: (§1) Jurkat cells were stimulated overnight with 20 ng/ml of PHA, harvested, washed, and checked for viability. The cells were then incubated at 6-10° C. for 45-60 minutes with various concentrations of test antibodies, washed and incubated at 6-10° C. for 45-60 minutes with FITC-labeled goat anti-human IgG. The cells were washed and fixed with BD Cytofix, refrigerated overnight and analyzed on a MACSQuant flow cytometer. The percentage of PD-1 positive cells at each antibody concentration was plotted vs log of the antibody concentration and EC₅₀ values were generated in Prism.

[3] = molecular target: T3, Extracellular domain of cyno PD1 (cPD1-ECD) (Macaca fascicularis (cynomolgus)); assay: SPR ProteOn, cynoPD1-ECD; RANGE high replicate
T3 construct: Expressed with a hexahistidine tag or as Fc fusion; also called cynoPD1-ECD; cynoPD-1-ECD
T3 chain: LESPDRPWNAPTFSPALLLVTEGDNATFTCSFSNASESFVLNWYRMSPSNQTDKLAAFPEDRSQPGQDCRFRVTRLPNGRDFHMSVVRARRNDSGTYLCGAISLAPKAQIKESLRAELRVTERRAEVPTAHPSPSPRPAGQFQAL

[4] = molecular target: T1, Extracellular domain of human PD1 …; assay: SPR ProteOn, huPD1-ECD; RANGE high replicate; RANGE high replicate
Method: (§2) Affinity measurements using Surface Plasmon Resonance (SPR) were performed using a ProteOn XPR36 system. A biosensor surface was prepared by coupling a mixture of anti-IgG Fc modified alginate polymer layer surface of a GLC chip using the manufacturer instructions for amine-coupling chemistry. […] The collected data were processed and fitted to a Langmuir 1:1 binding model. The result for each mAb was reported in the format of kₒₙ (On-rate), koff (Off-rate) and KD (equilibrium dissociation constant).
(§3) STDEV were calculated for 3 or more replicates generated for human and cyno proteins. If less than 3 replicates were calculated, RANGE is indicated. RANGE is defined as the low and high values for the replicates tested. For samples without RANGE or STDEV, only one experiment was performed

[5] = molecular target: T3, Extracellular domain of cyno PD1 …; assay: SPR ProteOn, cynoPD1-ECD; RANGE low replicate
Method: as §2, §3

[6] = molecular target: T3, Extracellular domain of cyno PD1 …; assay: SPR ProteOn, captured mAb, cynoPD1-ECD analyte
[7] = molecular target: T1, Extracellular domain of human PD1 …; assay: SPR ProteOn, captured mAb; antigen species not given
[8] = molecular target: T1, Extracellular domain of human PD1 …; assay: SPR ProteOn, comparison with PD1B114
[9] = molecular target: T3, Extracellular domain of cyno PD1 …; assay: SPR ProteOn, comparison with PD1B114
[10] = molecular target: T1, Extracellular domain of human PD1 …; assay: MSD ligand inhibition, competitor coated cynoPDL1-ECD
Method: (§4) The ligand inhibition assay design was MSD (Mescoscale Discovery) based. A MSD plate was directly coated with ligand (cynoPDL1-ECD, huPDL1-ECD or huPDL2-ECD) and incubated overnight at 4° C. The following day, the coating solution was removed and the plate was blocked. […] Depending on the panel of antibodies to be tested, the antibodies were tested as titrations or at a fixed concentration.

[11] = molecular target: T1, Extracellular domain of human PD1 …; assay: SPR ProteOn, captured mAb, huPD1-ECD analyte; remark: listed apart in the source
Method: as §2
(§5) STDEV were calculated for 3 or more replicates generated for human and cyno proteins. If less than 3 replicates were calculated, RANGE was indicated. RANGE is defined as the low and high values for the replicates tested. For samples in the Table 10 or Table 11 without value indicated in RANGE or STDEV, only one experiment was performed.

[12] = molecular target: T3, Extracellular domain of cyno PD1 …; assay: SPR ProteOn, cynoPD1-ECD; RANGE low replicate
[13] = molecular target: T3, Extracellular domain of cyno PD1 …; assay: SPR ProteOn, cynoPD1-ECD; RANGE low replicate; RANGE low replicate
Method: as §2, §3

[14] = molecular target: T1, Extracellular domain of human PD1 …; assay: SPR ProteOn, huPD1-ECD; RANGE high replicate
Method: as §2, §3

[15] = molecular target: T1, Extracellular domain of human PD1 …; assay: MSD ligand inhibition, competitor coated huPDL1-ECD
Method: as §4

[16] = molecular target: T1, Extracellular domain of human PD1 …; assay: MSD ligand inhibition, competitor coated cynoPDL1-ECD; remark: listed apart in the source
[17] = molecular target: T2, Full length human PD1 (huPD1) on cells; assay: flow cytometry, PHA-stimulated Jurkat cells; remark: listed apart in the source
Method: as §1

[18] = molecular target: T1, Extracellular domain of human PD1 …; assay: MSD ligand inhibition, competitor coated huPDL2-ECD
Method: as §4

[19] = molecular target: T3, Extracellular domain of cyno PD1 …; assay: SPR ProteOn, cynoPD1-ECD; RANGE high replicate
Method: as §2, §3

[20] = molecular target: T3, Extracellular domain of cyno PD1 …; assay: SPR ProteOn, captured mAb, cynoPD1-ECD analyte
[21] = molecular target: T3, Extracellular domain of cyno PD1 …; assay: SPR ProteOn, cynoPD1-ECD; RANGE high replicate; RANGE high replicate
Method: as §2, §3

[22] = molecular target: T3, Extracellular domain of cyno PD1 …; assay: as above
Method: as §2, §5

[23] = molecular target: T1, Extracellular domain of human PD1 …; assay: SPR ProteOn, captured mAb, huPD1-ECD analyte; approximation (chi2 > 20%)
Method: as §2
STDEV were calculated for 3 or more replicates generated for human and cyno proteins. If less than 3 replicates were calculated, RANGE was indicated. RANGE is defined as the low and high values for the replicates tested.

[24] = molecular target: T1, Extracellular domain of human PD1 …; assay: SPR ProteOn, huPD1-ECD; RANGE low replicate
Method: as §2, §3

[25] = molecular target: T1, Extracellular domain of human PD1 …; assay: SPR ProteOn, huPD1-ECD; RANGE low replicate; RANGE low replicate
Method: as §2, §3

- Kd [1]: 9.7 nM
- koff [1]: 0.00905 s⁻¹
- kon [1]: 933000 M⁻¹ s⁻¹
- EC50 [2]: 0.03 to 0.24 µg/mL
- Kd [3]: 35.1 nM
- koff [4]: 0.00943 s⁻¹
- kon [4]: 982000 M⁻¹ s⁻¹
- Kd [5]: 26.8 nM
- kon [5]: 349000 M⁻¹ s⁻¹
- Kd [6]: 31.3 nM
- koff [6]: 0.00917 s⁻¹
- kon [6]: 293000 M⁻¹ s⁻¹
- Kd [7]: 19.2 nM
- koff [7]: 0.00896 s⁻¹
- kon [7]: 468000 M⁻¹ s⁻¹
- fold tighter affinity compared to PD1B114 [8]: ~3 fold
- fold tighter affinity compared to PD1B114 [9]: ~2 fold
- IC50 [10]: 0.017 to 0.018 µg/mL
- koff [11]: 0.00852 s⁻¹
- kon [11]: 516000 M⁻¹ s⁻¹
- Kd [12]: 27.7 nM
- koff [12]: 0.008 s⁻¹
- kon [12]: 285000 M⁻¹ s⁻¹
- koff [13]: 0.00938 s⁻¹
- Kd [14]: 9.81 nM
- IC50 [15]: 0.019 µg/mL
- percentage ligand not blocked at 1 µg/ml [16]: 5%
- percentage ligand not blocked at 10 µg/ml [16]: 5%
- EC50 [17]: 0.05 µg/mL
- IC50 [18]: 0.029 µg/mL
- Kd [19]: 27.1 nM
- kon [19]: 350000 M⁻¹ s⁻¹
- Kd [20]: 26.9 nM
- koff [20]: 0.00942 s⁻¹
- kon [20]: 350000 M⁻¹ s⁻¹
- koff [21]: 0.00946 s⁻¹
- koff [22]: 0.01 s⁻¹
- kon [22]: 301000 M⁻¹ s⁻¹
- Kd [23]: ~17 nM
- Kd [24]: 9.6 nM
- kon [24]: 884000 M⁻¹ s⁻¹
- koff [25]: 0.00867 s⁻¹
B1: PD1B11 (antibody, V domains shown)
VH: QVQLVQSGAEVKKPGSSVKVSCKASGGTFSSYAISWVRQAPGQGLEWMGGIIPIFGTANYAQKFQGRVTITADESTSTAYMELSSLRSEDTAVYYCARPGLAAAYDTGSLDYWGQGTLVTVSS
VL: EIVLTQSPATLSLSPGERATLSCRASQSVSSYLAWYQQKPGQAPRLLIYDASNRATGIPARFSGSGSGTDFTLTISSLEPEDFAVYYCQQRSNWPLTFGQGTKVEIK
notes: Tested as IgG2sigma/kappa; also called PD1H3/PH9L3
